In publication PMC3478540 (Diabetes, 2012):

Target: GRP78 in membrane fractions of mouse liver (mouse (endogenous in liver), UniProt P20029 20-655)
Experiment: radioligand binding

GRP78 in membrane fractions of mouse liver, sequence (P20029 20-655): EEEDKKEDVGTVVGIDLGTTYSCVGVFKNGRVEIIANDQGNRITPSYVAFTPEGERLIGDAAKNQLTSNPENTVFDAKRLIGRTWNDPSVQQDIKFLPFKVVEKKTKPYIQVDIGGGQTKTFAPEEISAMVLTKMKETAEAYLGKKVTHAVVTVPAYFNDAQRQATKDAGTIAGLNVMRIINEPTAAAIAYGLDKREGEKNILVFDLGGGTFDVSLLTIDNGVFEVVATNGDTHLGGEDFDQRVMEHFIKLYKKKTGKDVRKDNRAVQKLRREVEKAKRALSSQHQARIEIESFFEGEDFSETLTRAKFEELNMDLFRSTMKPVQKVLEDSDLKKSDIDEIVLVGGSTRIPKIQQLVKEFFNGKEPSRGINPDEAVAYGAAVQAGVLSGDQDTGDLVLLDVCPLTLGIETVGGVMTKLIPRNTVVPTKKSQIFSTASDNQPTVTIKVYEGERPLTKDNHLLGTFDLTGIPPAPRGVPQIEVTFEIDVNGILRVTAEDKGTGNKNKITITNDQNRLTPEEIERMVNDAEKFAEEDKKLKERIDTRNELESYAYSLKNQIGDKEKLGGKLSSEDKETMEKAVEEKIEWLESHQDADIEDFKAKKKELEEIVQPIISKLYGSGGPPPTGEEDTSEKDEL

- Kd: 22.2 nM
B1: ^125I-vaspin (iodinated rhVaspin) (natural protein, human, UniProt Q8IW75 21-414, looked up)
chain: LKPSFSPRNYKALSEVQGWKQRMAAKELARQNMDLGFKLLKKLAFYNPGRNIFLSPLSISTAFSMLCLGAQDSTLDEIKQGFNFRKMPEKDLHEGFHYIIHELTQKTQDLKLSIGNTLFIDQRLQPQRKFLEDAKNFYSAETILTNFQNLEMAQKQINDFISQKTHGKINNLIENIDPGTVMLLANYIFFRARWKHEFDPNVTKEEDFFLEKNSSVKVPMMFRSGIYQVGYDDKLSCTILEIPYQKNITAIFILPDEGKLKHLEKGLQVDTFSRWKTLLSRRVVDVSVPRLHMTGTFDLKKTLSYIGVSKIFEEHGDLTKIAPHRSLKVGEAVHKAELKMDERGTEGAAGTGAQTLPMETPLVVKIDKPYLLLIYSEKIPSVLFLGKIVNPIGK
modifications: 125I-iodinated, residues not stated
